# From patent US20220204643A1 (published 2022)
# T1: membrane palmitoylated protein 2, transcript variant 3 (human, UniProt Q14168 1-576)
# T1 construct: HuProt array protein, full-length recombinant from yeast; also called MPP2
# T1 sequence: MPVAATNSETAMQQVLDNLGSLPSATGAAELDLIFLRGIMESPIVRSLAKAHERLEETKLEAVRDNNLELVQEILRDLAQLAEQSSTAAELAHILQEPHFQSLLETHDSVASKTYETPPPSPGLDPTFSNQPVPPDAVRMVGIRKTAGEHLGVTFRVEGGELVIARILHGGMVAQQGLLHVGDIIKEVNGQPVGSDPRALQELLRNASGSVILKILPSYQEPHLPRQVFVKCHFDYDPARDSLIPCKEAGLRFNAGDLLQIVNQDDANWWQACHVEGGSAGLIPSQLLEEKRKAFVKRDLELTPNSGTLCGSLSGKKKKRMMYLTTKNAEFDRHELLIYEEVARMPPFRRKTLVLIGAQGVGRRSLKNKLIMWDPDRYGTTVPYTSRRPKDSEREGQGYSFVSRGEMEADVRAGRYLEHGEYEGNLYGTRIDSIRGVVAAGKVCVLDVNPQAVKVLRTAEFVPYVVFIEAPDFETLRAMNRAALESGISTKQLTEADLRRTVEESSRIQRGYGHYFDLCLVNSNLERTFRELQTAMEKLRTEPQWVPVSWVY
# T2: kelch like family member 40 (human, UniProt Q2TBA0 1-621)
# T2 construct: HuProt array protein, full-length recombinant from yeast; also called KLHL40
# T2 sequence: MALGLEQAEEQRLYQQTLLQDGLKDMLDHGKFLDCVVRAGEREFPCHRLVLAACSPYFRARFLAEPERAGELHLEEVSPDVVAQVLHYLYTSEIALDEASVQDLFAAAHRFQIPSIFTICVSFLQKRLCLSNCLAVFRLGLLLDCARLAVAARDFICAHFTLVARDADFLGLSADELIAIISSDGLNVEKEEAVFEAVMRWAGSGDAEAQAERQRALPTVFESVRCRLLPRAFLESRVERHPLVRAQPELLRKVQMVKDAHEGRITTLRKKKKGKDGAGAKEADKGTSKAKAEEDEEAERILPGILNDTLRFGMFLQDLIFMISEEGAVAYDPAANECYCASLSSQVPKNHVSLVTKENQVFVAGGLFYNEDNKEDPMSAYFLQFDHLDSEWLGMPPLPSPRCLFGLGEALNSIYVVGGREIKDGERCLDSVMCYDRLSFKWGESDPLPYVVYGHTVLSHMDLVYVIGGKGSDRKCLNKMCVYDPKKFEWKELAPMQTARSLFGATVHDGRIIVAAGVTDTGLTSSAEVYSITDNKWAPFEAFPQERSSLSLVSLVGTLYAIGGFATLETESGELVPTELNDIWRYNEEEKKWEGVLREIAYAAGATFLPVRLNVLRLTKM
# T3: FA complementation group G (human, UniProt O15287 1-622)
# T3 construct: HuProt array protein, full-length recombinant from yeast; also called FANCG
# T3 sequence: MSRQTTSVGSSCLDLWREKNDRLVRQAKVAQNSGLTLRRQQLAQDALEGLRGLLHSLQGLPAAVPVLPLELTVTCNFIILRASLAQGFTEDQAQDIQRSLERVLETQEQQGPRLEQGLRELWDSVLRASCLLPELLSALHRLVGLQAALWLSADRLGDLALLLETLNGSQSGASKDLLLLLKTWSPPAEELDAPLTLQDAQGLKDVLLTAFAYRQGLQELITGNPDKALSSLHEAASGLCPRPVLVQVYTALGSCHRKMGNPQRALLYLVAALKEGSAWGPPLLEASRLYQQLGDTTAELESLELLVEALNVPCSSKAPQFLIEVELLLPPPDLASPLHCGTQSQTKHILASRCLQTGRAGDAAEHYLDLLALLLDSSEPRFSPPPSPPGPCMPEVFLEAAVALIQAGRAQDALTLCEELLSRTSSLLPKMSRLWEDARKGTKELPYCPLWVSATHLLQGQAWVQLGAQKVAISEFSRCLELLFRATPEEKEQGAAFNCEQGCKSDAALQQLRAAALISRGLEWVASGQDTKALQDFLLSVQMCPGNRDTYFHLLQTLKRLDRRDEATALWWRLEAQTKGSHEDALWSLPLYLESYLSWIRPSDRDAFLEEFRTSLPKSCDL
# T4: butyrophilin subfamily 1 member A1 (human, UniProt Q13410 27-526)
# T4 construct: HuProt array protein, full-length recombinant from yeast; also called BTN1A1
# T4 sequence: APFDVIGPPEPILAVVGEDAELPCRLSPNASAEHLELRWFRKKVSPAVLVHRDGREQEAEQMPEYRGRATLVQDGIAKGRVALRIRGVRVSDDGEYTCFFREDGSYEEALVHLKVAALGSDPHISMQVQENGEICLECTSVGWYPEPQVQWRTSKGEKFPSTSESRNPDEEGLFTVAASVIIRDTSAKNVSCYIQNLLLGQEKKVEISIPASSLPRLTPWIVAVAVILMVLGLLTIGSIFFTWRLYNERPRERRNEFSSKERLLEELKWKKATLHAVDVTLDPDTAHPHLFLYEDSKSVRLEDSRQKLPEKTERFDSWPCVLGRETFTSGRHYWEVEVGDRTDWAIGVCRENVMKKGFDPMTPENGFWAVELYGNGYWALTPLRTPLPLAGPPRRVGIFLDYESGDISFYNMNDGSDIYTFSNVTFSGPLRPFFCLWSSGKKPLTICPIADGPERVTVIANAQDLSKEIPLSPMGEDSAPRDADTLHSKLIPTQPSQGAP
# T5: SATB homeobox 2, transcript variant 2 (human, UniProt Q9UPW6 1-733)
# T5 construct: HuProt array protein, full-length recombinant from yeast; also called SATB2
# T5 sequence: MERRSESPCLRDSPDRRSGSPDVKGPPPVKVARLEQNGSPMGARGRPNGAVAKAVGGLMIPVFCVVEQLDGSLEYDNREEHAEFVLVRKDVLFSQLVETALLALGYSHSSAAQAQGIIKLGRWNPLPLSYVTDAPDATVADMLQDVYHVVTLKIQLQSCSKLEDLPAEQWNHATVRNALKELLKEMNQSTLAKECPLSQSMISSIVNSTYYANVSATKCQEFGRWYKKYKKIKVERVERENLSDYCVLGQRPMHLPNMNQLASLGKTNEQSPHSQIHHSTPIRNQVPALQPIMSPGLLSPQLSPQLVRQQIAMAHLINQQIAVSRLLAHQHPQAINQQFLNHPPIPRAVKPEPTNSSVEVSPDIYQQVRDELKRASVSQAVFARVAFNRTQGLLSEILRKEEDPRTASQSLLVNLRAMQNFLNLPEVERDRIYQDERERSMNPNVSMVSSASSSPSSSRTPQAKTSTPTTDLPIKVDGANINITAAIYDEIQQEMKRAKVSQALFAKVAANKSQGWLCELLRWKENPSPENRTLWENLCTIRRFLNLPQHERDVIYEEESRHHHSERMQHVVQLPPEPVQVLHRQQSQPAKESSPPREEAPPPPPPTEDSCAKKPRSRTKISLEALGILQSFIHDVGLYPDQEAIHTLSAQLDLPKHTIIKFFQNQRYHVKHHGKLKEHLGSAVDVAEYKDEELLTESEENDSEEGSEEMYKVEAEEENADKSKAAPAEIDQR
# T6: ganglioside induced differentiation associated protein 1, transcript variant 2 (human, UniProt Q8TB36 69-358)
# T6 construct: HuProt array protein, full-length recombinant from yeast; also called GDAP1
# T6 sequence: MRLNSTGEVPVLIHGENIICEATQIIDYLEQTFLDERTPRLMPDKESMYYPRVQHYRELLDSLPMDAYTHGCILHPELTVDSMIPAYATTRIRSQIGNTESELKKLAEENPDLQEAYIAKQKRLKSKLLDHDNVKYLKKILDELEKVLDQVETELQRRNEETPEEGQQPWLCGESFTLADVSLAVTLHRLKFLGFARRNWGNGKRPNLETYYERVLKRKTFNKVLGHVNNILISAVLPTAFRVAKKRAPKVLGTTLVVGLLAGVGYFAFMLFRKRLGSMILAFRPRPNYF
# T7: zinc finger with KRAB and SCAN domains 4, transcript variant X1 (human, UniProt Q969J2 1-545)
# T7 construct: HuProt array protein, full-length recombinant from yeast; also called ZKSCAN4
# T7 sequence: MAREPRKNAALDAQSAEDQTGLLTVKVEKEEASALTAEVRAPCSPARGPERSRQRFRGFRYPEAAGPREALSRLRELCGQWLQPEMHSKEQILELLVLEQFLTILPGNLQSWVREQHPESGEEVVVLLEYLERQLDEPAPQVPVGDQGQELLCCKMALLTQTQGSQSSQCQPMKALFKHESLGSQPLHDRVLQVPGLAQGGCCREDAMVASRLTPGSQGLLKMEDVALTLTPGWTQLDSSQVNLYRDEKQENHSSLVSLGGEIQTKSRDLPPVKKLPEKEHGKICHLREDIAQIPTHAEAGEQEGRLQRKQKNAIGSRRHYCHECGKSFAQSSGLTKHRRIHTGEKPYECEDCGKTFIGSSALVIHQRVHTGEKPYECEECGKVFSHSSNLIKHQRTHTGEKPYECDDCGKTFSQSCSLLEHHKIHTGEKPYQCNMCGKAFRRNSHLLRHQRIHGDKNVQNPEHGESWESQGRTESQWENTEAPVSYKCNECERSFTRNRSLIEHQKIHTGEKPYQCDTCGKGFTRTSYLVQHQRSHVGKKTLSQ
# B1: TBRE1012 (antibody, V domains shown)
# VH: QVQLQESGPGLVKPTQTLSLTCTVSGGSISSGSYYWNWIRQPAGKGLEWIGNIYTSGNTDYNPSLKSRVTISLDTSKNQVSLNLTSVTAADTAVYYCATTPSSSWYWYFDPWGQGTLVTVSS
# VL: DLQMTQSPSSLSASIGDRVTITCRASQSISTYFNWYQQKPGKAPKLLIYAASSLQSGVPSRFSGSGSGTDFTLTITSLQPEDFATYYCQQTYSNPWTFGQGTKVDFKR
# notes: detected with anti-human IgG Fc
# B2: TBRE1024 (antibody, V domains shown)
# VH: PVQLQESGPGLVKPSETLSLTCTVSGGSISSDNYYWSWLRQHPGKGLEWIGYIYFSVTTYYNPSLKSRVTISLDTSKNQFSLKLSSVTAADTAVYYCASGYVSFDLWGQGTLVTVSS
# VL: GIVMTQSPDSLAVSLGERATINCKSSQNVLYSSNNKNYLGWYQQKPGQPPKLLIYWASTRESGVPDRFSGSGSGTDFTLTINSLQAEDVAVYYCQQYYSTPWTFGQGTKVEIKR
# notes: as for B1
# B3: TBRE1013 (antibody, V domains shown)
# VH: EVQLVESGGGLVKPGGSLRLSCAGSGFSFSSYSMNWVRQAPGKGLEWVSSISSKSSSKNYIDSVKNRFIISRDNAKNSLYLQMNSLRAEDTAVYYCARDLELIIAAGAPLDHWGQGTLVTVSS
# VL: DIQMTQSPSSLSASVGDRVTITCRASQSIKNYVNWYQQKPGEAPNLLIFAASNLQSGVPSRFTGSGSGTDFSLTISSLQPEDFAAYYCQQTYSHPRTFGQGTRVEIKR
# notes: as for B1
# B4: TBRE1017 (antibody, V domains shown)
# VH: QVQLVQSGAEVKKPGASVKVSCKASGYNFRDYYMHWVRQAPGQGLEWMGWINPNSGGTISAQNFQGRVTMTRDTSISTAYMEVNSLRSDDTAVYYCAVGMVTDGFEIWGQGTLVTVSS
# VL: PYELTQPPSVSVSPGQTARITCSGDALPNENAFWYQQKPGQAPVLVIYEDIKRPSGIPERFSGSSSGTTVTLTISGVQAEDEADYYCQSVDITSTWVFGGGTKLTVLG
# notes: as for B1
# B5: TBRE1009 (antibody, V domains shown)
# VH: EVQLVESGGGLVKPGGSLRLSCVGSGFTFSNYSMNWVRQAPGRGLEWVSSISWGSSYINYADSVKGRFTISRDNAKNSLYLQMTSLTAEDTAVYYCACRRIYQGFDPWGQGTLVT
# VL: DIQMTQSPSSLSASVGDRVTISCRASHNINTYLNWYQHKPGKAPKIVIYGASSLQSGVPSRFSGSGSGTDFSLTISSLQREDFATYFCQQSFNTVLTFGGGTRVDI
# notes: as for B1
# Assays:
# [1] = biological target: T1, membrane palmitoylated protein 2, …
# [2] = biological target: T2, kelch like family member 40
# [3] = biological target: T3, FA complementation group G
# [4] = biological target: T4, butyrophilin subfamily 1 member A1
# [5] = biological target: T5, SATB homeobox 2, transcript variant 2
# zinc finger protein 8 = biological target: T8, zinc finger protein 8 (human, UniProt P17098 1-575)
# T8 construct: HuProt array protein, full-length recombinant from yeast; also called ZNF8
# T8 sequence (P17098 whole entry): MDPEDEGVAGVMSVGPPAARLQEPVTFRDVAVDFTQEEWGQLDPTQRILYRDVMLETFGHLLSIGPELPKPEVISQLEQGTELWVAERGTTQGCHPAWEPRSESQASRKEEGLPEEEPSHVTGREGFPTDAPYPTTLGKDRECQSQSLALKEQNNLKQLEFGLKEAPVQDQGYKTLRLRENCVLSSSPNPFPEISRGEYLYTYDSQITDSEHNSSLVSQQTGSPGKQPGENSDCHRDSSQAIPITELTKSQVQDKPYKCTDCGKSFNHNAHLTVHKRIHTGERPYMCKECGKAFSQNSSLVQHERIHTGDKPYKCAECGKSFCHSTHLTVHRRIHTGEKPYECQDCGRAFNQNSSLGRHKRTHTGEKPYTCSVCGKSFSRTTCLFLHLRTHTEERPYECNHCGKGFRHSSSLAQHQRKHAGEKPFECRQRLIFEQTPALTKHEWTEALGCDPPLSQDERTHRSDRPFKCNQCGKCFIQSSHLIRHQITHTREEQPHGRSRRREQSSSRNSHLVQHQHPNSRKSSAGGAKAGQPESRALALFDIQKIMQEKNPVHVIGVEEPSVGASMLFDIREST
# [6] = biological target: T6, ganglioside induced differentiation …
# [7] = biological target: T7, zinc finger with KRAB and SCAN domains …
binder,measurement,setting,value
B1,binding result,[1],binds
same,binding result,[2],binds
B2,binding result,[3],binds
B3,binding result,[4],binds
B4,binding result,[5],binds
same,binding result,zinc finger protein 8,binds
same,binding result,[6],binds
B5,binding result,[7],binds
